According to PMC4333378, “Human PrimPol is a highly error-prone polymerase regulated by single-stranded DNA binding proteins” (Nucleic Acids Research, 2014):

T1: full-length human PrimPol (recombinant) (human, UniProt Q96LW4 1-560)
T1 construct: also called wild-type PrimPol
T1 sequence (looked up): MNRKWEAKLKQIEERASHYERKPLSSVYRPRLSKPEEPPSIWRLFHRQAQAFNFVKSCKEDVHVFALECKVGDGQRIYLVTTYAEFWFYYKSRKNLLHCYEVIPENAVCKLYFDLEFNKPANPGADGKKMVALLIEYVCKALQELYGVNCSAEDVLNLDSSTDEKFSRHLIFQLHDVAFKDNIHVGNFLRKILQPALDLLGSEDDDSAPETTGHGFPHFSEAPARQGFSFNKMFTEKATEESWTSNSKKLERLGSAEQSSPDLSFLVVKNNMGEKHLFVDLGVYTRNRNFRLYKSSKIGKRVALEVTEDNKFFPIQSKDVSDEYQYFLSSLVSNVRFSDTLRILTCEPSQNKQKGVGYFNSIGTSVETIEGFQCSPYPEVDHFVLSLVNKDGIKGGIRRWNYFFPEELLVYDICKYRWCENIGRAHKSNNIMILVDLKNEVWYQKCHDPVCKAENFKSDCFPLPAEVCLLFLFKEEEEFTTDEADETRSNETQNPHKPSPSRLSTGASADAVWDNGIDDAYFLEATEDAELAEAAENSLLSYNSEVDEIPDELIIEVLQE

T2: mtSSB (human, UniProt Q04837 17-148)
T2 sequence: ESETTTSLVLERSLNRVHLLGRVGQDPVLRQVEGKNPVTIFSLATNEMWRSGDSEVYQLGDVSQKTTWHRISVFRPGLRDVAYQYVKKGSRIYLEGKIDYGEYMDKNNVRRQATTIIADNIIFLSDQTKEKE

B1: RPA70N^1–120 (DBD-N of RPA1, N-terminal domain of RPA70) (domain or fragment, human, UniProt P27694 1-120, looked up)
chain: MVGQLSEGAIAAIMQKGDTNIKPILQVINIRPITTGNSPPRYRLLMSDGLNTLSSFMLATQLNPLVEEEQLSSNCVCQIHRFIVNTLKDGRRVVILMELEVLKSAEAVGVKIGNPVPYNE
modifications: 15N-enriched
notes: RPA70 (RPA1) residues 1-120, N-terminal protein recruitment domain

Tests used:
[1] = target: T1, full-length human PrimPol (recombinant); assay: NMR titration; 15N-1H HSQC of 15N-enriched RPA domain (50 uM RPA70N) alone and with 2-fold molar excess (100 uM) of unlabelled PrimPol construct; 25°C; 20 mM HEPES, 80 mM NaCl, 2 mM DTT, 5% deuterium oxide, pH 7.1; details: both partners purified
[2] = target: T2, mtSSB; assay: EMSA; 10 mM Mg acetate; full shift at less than half the amount needed for RPA; super-shifted bands = multiple SSBs bound; EMSA: 50 mM K acetate, 20 mM Tris-acetate pH 7.9, 10 mM Mg acetate, 1 mM DTT, 60 nM FAM-ssDNA, 60 min at room temperature; 5% native PAGE in 0.5x TBE; details: protein: recombinant; chain copies: 4; label: 5'-FAM (fluorescein); single strand
[3] = target: RPA (replication protein A) (human, UniProt P27694;P15927;P35244 1-616;1-270;1-121); assay: EMSA; 10 mM Mg acetate; SSB/oligo 0-16; more than twice as much RPA as mtSSB needed to fully shift; super-shifted bands = multiple SSBs bound; EMSA: 50 mM K acetate, 20 mM Tris-acetate pH 7.9, 10 mM Mg acetate, 1 mM DTT, 60 nM FAM-ssDNA, 60 min at room temperature; 5% native PAGE in 0.5x TBE; details: protein: recombinant; copies: 1;1;1; label: 5'-FAM (fluorescein); single strand
Chain of RPA (replication protein A) (P15927 whole entry, chain 2 of 2): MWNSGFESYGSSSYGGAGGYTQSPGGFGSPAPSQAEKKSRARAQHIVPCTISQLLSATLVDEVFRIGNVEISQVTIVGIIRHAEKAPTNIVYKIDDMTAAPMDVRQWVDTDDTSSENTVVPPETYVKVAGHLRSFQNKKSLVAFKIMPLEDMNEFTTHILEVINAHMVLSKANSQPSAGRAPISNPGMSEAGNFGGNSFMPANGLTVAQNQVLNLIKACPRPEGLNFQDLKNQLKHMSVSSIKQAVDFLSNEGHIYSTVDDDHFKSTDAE
Chain of RPA (replication protein A) (P35244 whole entry, chain 3 of 2): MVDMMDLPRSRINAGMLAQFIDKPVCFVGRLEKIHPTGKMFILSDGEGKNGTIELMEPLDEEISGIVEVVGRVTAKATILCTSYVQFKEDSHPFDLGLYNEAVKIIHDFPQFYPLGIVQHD

| Binder | binding result [1] | binding result [2] | binding result [3] |
| --- | --- | --- | --- |
| B1 | binds | – | – |
| CGCGCAGGGCGCACAACAGCCTTGAAGACCGAACGACCGAACAGACGACA (ssDNA) [ND-50 ssDNA Template (sequence 16)] | – | binds | binds |
